{"source": "paper PMC4976022", "origin": "cited, not measured here", "biological_target": "HPr (Escherichia coli) (UniProt P0AA04)"}
{"substance": "EIN N-terminal domain (from UniProt P08839)", "values": [{"measurement": "Kd", "value": 7, "unit": "µM"}]}
